For assay [1], the target named is T1, C4b-binding protein (human, UniProt P04003 49-597; P20851 18-252).
T1 construct: also called C4BP
T1 sequence (looked up) 1: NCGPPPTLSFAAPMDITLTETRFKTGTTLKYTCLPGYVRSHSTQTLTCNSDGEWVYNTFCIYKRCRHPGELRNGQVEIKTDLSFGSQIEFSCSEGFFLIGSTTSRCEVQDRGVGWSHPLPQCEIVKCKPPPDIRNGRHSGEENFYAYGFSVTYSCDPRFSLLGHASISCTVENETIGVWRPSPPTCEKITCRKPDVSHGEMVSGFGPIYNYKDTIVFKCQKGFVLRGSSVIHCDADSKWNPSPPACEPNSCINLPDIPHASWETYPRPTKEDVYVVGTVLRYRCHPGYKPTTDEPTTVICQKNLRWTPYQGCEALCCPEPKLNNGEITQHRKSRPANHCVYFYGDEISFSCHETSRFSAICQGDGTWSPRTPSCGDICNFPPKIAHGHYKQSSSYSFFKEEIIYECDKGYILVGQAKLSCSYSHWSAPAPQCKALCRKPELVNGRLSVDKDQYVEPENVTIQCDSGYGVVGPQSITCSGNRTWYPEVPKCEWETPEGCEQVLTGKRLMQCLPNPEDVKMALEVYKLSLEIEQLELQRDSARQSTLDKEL
T1 sequence (looked up) 2: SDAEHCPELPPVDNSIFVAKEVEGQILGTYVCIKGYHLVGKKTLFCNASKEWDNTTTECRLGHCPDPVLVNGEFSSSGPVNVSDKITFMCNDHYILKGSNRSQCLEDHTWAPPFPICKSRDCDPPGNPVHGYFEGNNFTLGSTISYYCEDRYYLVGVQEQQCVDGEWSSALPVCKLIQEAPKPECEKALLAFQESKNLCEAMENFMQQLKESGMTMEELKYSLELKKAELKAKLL
Nature of the assay: bispecific ELISA. As to the method: (§1) BsAbs were tested for binding to both antigens in a bispecific ELISA. MaxiSorp plates (Thermo Scientific, Nunc, 430341) were coated with 50 μL/well BSA-DNP (10 μg/mL, Biosearch Technologies, D-5050-10, conjugation ration 13) in coating buffer (0.1 M Na₂CO₃/NaHCO₃PH 9.6) for 1 hour at 37° C. After every incubation, plates were washed three times with PBS/0.05% Tween 20. Plates were blocked with 100 μL/well PBS/1% BSA for 1 hour at 37° C. After washing, plates were incubated with 50 μL/well (bs) Abs diluted in PBS/0.05% Tween 20/1% BSA (PTB buffer) for 1 hour at 37° C. Next, 1 μg/mL FH (CompTech, A137) or C4BP (CompTech, A109) diluted in PTB buffer was added. FH was detected using goat anti-human FH (Quidel, A312) and HRP-labeled rabbit anti-goat Ig (Dako, P0449), and C4BP was detected using rabbit anti-human C4BP (kind gift from Anna M. Blom, Malmö, Sweden) and HRP-labeled goat anti-rabbit Ig (Dako, P0448), all diluted in PTB buffer. Plates were developed by incubating with 50 μL/well ABTS (Merck, A1888-5G) containing 1:2000 diluted H₂O₂ (Merck, 1072090250), and read at 415 nm using a microplate reader (BIO-RAD iMark). It was confirmed by ELISA that the bsAbs can bind to a specific target (e.g., DNP as a model antigen) as well as FH or C4BP, whereas the parental monospecific antibodies cannot (FIG. 1A).

Assay [2] concerns the target T1, C4b-binding protein. Nature of the assay: bispecific ELISA: BSA-DNP coat, antibody, then C4BP, C4BP detected. As for the experimental part:
as §1
For orientation: An ELISA detects its analyte on a solid surface through an enzyme-linked reagent.

For assay [3], the target named is T2, Complement Factor H protein (human, UniProt P08603 19-1231).
T2 construct: Plasma protein, bought purified or present in normal human serum; also called FH; CFH
Nature of the assay: bispecific ELISA: BSA-DNP coat, antibody, then FH, FH detected. As for the experimental part: as §1

Assay [4] deals with T2, Complement Factor H protein. Nature of the assay: bispecific ELISA and complement activation assay on biotinylated BSA-DNP, FH detected.

The results in this text go back to US20260258117A1 (ACADEMISCH ZIEKENHUIS LEIDEN H O D N LUMC, published 2026).

T2 sequence (P08603 19-1231 limits assumed): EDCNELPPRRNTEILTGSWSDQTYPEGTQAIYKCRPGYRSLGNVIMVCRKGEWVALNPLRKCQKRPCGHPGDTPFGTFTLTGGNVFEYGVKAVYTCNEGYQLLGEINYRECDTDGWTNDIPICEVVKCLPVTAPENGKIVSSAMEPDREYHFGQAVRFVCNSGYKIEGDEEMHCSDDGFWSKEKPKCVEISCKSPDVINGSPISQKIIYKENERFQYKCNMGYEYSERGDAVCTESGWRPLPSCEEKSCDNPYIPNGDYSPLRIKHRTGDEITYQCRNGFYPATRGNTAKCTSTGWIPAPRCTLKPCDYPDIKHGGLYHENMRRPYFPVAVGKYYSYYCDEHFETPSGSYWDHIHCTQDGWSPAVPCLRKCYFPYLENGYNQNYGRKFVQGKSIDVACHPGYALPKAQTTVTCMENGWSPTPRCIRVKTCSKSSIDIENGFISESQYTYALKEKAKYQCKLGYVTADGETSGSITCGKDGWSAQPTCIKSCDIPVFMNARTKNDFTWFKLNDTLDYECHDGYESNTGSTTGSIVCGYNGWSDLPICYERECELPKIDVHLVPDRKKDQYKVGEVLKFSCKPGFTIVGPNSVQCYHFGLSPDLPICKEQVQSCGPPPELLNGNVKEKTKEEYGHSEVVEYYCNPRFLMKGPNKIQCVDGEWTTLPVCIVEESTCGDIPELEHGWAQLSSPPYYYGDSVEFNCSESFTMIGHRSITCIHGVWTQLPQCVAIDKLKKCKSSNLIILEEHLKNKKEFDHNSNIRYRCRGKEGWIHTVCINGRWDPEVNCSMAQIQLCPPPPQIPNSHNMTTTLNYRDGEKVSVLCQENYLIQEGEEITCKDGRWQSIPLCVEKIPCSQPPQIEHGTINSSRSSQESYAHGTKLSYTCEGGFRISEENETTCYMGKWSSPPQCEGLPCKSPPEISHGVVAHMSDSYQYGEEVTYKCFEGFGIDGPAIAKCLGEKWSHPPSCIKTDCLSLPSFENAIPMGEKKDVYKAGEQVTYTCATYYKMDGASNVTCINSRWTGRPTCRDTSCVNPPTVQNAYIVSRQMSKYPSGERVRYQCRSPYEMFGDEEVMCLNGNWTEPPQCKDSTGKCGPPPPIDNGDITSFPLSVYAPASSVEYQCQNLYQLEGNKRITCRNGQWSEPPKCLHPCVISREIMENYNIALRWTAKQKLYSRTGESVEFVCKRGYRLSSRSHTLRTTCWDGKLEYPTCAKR

B1: Anti-C4BP F405L LALAPG, Anti-DNP K409R LALAPG (bispecific antibody, human IgG1, kappa, L234A L235A)
heavy 1: EVQLVESGGGLVKPGGSLKLSCAVSGFIFSDYYMYWVRQTPEKRLEWVATISDGGVYTYYPDSMKGRFTISRDNAKNNLYLQMSSLKSEDTAMYYCVRGDYYGNSLDYWGQGTSVTVSSASTKGPSVFPLAPSSKSTSGGTAALGCLVKDYFPEPVTVSWNSGALTSGVHTFPAVLQSSGLYSLSSVVTVPSSSLGTQTYICNVNHKPSNTKVDKRVEPKSCDKTHTCPPCPAPEAAGGPSVFLFPPKPKDTLMISRTPEVTCVVVDVSHEDPEVKFNWYVDGVEVHNAKTKPREEQYNSTYRVVSVLTVLHQDWLNGKEYKCKVSNKALGAPIEKTISKAKGQPREPQVYTLPPSREEMTKNQVSLTCLVKGFYPSDIAVEWESNGQPENNYKTTPPVLDSDGSFLLYSKLTVDKSRWQQGNVFSCSVMHEALHNHYTQKSLSLSPGK
light 1: DVVMTQTPLTLSITIGQPASISCKSSQSLLDGDGKTYLNWLLQRPGQSPKRLIYLVSKLDSGVPDRFTGSGSGTDFTLKISRVEAEDLGVYYCCQGTHFPWTFGRGTKLEIKRTVAAPSVFIFPPSDEQLKSGTASVVCLLNNFYPREAKVQWKVDNALQSGNSQESVTEQDSKDSTYSLSSTLTLSKADYEKHKVYACEVTHQGLSSPVTKSFNRGEC
heavy 2: DVRLQESGPGLVKPSQSLSLTCSVTGYSITNSYYWNWIRQFPGNKLEWMVYIGYDGSNNYNPSLKNRISITRDTSKNQFFLKLNSVTTEDTATYYCARATYYGNYRGFAYWGQGTLVTVSAASTKGPSVFPLAPSSKSTSGGTAALGCLVKDYFPEPVTVSWNSGALTSGVHTFPAVLQSSGLYSLSSVVTVPSSSLGTQTYICNVNHKPSNTKVDKRVEPKSCDKTHTCPPCPAPEAAGGPSVFLFPPKPKDTLMISRTPEVTCVVVDVSHEDPEVKFNWYVDGVEVHNAKTKPREEQYNSTYRVVSVLTVLHQDWLNGKEYKCKVSNKALGAPIEKTISKAKGQPREPQVYTLPPSREEMTKNQVSLTCLVKGFYPSDIAVEWESNGQPENNYKTTPPVLDSDGSFFLYSRLTVDKSRWQQGNVFSCSVMHEALHNHYTQKSLSLSPGK
light 2: DIRMTQTTSSLSASLGDRVTISCRASQDISNYLNWYQQKPDGTVKLLIYYTSRLHSGVPSRFSGSGSGTDYSLTISNLEQEDIATYFCQQGNTLPWTFGGGTKLEIKRTVAAPSVFIFPPSDEQLKSGTASVVCLLNNFYPREAKVQWKVDNALQSGNSQESVTEQDSKDSTYSLSSTLTLSKADYEKHKVYACEVTHQGLSSPVTKSFNRGEC
notes: Made by controlled Fab-arm exchange; also called anti-C4BP x anti-DNP
For B1, the binding result in the assay with C4b-binding protein [1] is “binds”.

B2: Anti-DNP K409R LALAPG (antibody, human IgG1, kappa, L234A L235A, V domains shown)
VH: DVRLQESGPGLVKPSQSLSLTCSVTGYSITNSYYWNWIRQFPGNKLEWMVYIGYDGSNNYNPSLKNRISITRDTSKNQFFLKLNSVTTEDTATYYCARATYYGNYRGFAYWGQGTLVTVSA
VL: DIRMTQTTSSLSASLGDRVTISCRASQDISNYLNWYQQKPDGTVKLLIYYTSRLHSGVPSRFSGSGSGTDYSLTISNLEQEDIATYFCQQGNTLPWTFGGGTKLEIKR
notes: also called anti-DNP parental Ab; parental monospecific antibody
Consider B2, for which the results for the binding result (in the assay with C4b-binding protein [2]; in assay [3]) were “no binding (tested: 1 µg/mL C4BP)” and “no binding (tested: 1 µg/mL FH)”, respectively.

B3: Anti-FH F405L LALAPG, Anti-biotin K409R LALAPG (bispecific antibody, human IgG1, kappa, L234A L235A)
heavy 1: EVQLQQSGPELVKPGASVKISCKASGYSFTGYFIHWVKQSHVKSLEWFGRINPYNGATDYNQNFKDKAILTIDESSSTAYMEIHSLTSDDSAVYYCARGLFLDYWGQGTTLTVSSASTKGPSVFPLAPSSKSTSGGTAALGCLVKDYFPEPVTVSWNSGALTSGVHTFPAVLQSSGLYSLSSVVTVPSSSLGTQTYICNVNHKPSNTKVDKRVEPKSCDKTHTCPPCPAPEAAGGPSVFLFPPKPKDTLMISRTPEVTCVVVDVSHEDPEVKFNWYVDGVEVHNAKTKPREEQYNSTYRVVSVLTVLHQDWLNGKEYKCKVSNKALGAPIEKTISKAKGQPREPQVYTLPPSREEMTKNQVSLTCLVKGFYPSDIAVEWESNGQPENNYKTTPPVLDSDGSFLLYSKLTVDKSRWQQGNVFSCSVMHEALHNHYTQKSLSLSPGK
light 1: DILMTQSPSSMSVSLGDTVSITCHASQGITSNIGWLQQKPGKSFKGLIYHGTNLEDGVPSRFSGSGSGADYSLTISSLESEDFADYYCVQYAQFPWTFGGGTKLEIKRTVAAPSVFIFPPSDEQLKSGTASVVCLLNNFYPREAKVQWKVDNALQSGNSQESVTEQDSKDSTYSLSSTLTLSKADYEKHKVYACEVTHQGLSSPVTKSFNRGEC
heavy 2: QVKLQESGPGLVAPSQSLSITCTVSGFSLTAYGVDWVRQPPGKGLEWLGVIWGGGRTNYNSGLMSRLSIRKDNSKSQVFLTMNSLQTDDTAKYYCVKHTNWDGGFAYWGQGTTVTVSSASTKGPSVFPLAPSSKSTSGGTAALGCLVKDYFPEPVTVSWNSGALTSGVHTFPAVLQSSGLYSLSSVVTVPSSSLGTQTYICNVNHKPSNTKVDKRVEPKSCDKTHTCPPCPAPEAAGGPSVFLFPPKPKDTLMISRTPEVTCVVVDVSHEDPEVKFNWYVDGVEVHNAKTKPREEQYNSTYRVVSVLTVLHQDWLNGKEYKCKVSNKALGAPIEKTISKAKGQPREPQVYTLPPSREEMTKNQVSLTCLVKGFYPSDIAVEWESNGQPENNYKTTPPVLDSDGSFFLYSRLTVDKSRWQQGNVFSCSVMHEALHNHYTQKSLSLSPGK
light 2: DVVMTQSPLSLPVSLGDQASISCRSGQGLVYSNGDTYLHWYLQKPGQSPKLLIYKVSNRFSGVPDRFSGSGSGTDFTLKISRVEAEDLGVYFCSQSTHFPFTFGSGTKLEIKRTVAAPSVFIFPPSDEQLKSGTASVVCLLNNFYPREAKVQWKVDNALQSGNSQESVTEQDSKDSTYSLSSTLTLSKADYEKHKVYACEVTHQGLSSPVTKSFNRGEC
notes: Made by controlled Fab-arm exchange; also called anti-FH x anti-biotin
Consider B3, for which the binding result in assay [4] is “binds”.
